Reference: patent US20250129174A1 (LTZ THERAPEUTICS, published 2025)

B1: 4-1BB-2×CCR8-2 (HC) BsAb (bispecific antibody, human IgG1, kappa)
heavy: not shown
light: DIVMTQTPLSLSVTPGQPASISCRSSQSLFHSSGNTYLHWYLQKPGQPPQLLIYKVSNRFSGVPDRFSGSGSGTDFTLKISRVEAEDVGVYYCSQSTHVPFTFGQGTKLEIKRTVAAPSVFIFPPSDEQLKSGTASVVCLLNNFYPREAKVQWKVDNALQSGNSQESVTEQDSKDSTYSLSSTLTLSKADYEKHKVYACEVTHQGLSSPVTKSFNRGEC
notes: The light chain is the CCR8-2 kappa light chain; also called 4-1BB-2×CCR8-2 (HC) bispecific antibody
B2: 4-1BB-2×CCR8-2 (LC2) BsAb (bispecific antibody, human IgG1, kappa)
heavy: not shown
light: DIVMTQTPLSLSVTPGQPASISCRSSQSLFHSSGNTYLHWYLQKPGQPPQLLIYKVSNRFSGVPDRFSGSGSGTDFTLKISRVEAEDVGVYYCSQSTHVPFTFGQGTKLEIKRTVAAPSVFIFPPSDEQLKSGTASVVCLLNNFYPREAKVQWKVDNALQSGNSQESVTEQDSKDSTYSLSSTLTLSKADYEKHKVYACEVTHQGLSSPVTKSFNRGECGGGGSGGGGSGGGGSDVVLTQSPLSLPVTLGQPASISCRSSQSLLDSDGNTYLYWFQQRPGQSPRRLIYLVSNLGSGVPDRFSGSGSGTDFTLKISRVEAEDVGVYYCMQPTHAPYTFGQGTKLEIKGGGGSGGGGSGGGGSGGGGSEVQLVQSGAEVKKPGSSVKVSCKASDYTFNDYWVSWVRQAPGQGLEWIGEIYPNSGATNFNGKFRGRATLTVDNSASTAYMELSSLRSEDTAVYYCTREYTRDWFAYWGQGTLVTVSS
notes: The light chain is the CCR8-2 kappa light chain with the 4-1BB-2 scFv (VL-linker-VH) joined by a linker to its C-terminus; also called 4-1BB-2×CCR8-2 (LC2) bispecific antibody
B3: 4-1BB-2×CCR8-2 (LC1) BsAb (bispecific antibody, human IgG1, kappa)
heavy: not shown
light: DVVLTQSPLSLPVTLGQPASISCRSSQSLLDSDGNTYLYWFQQRPGQSPRRLIYLVSNLGSGVPDRFSGSGSGTDFTLKISRVEAEDVGVYYCMQPTHAPYTFGQGTKLEIKGGGGSGGGGSGGGGSGGGGSEVQLVQSGAEVKKPGSSVKVSCKASDYTFNDYWVSWVRQAPGQGLEWIGEIYPNSGATNFNGKFRGRATLTVDNSASTAYMELSSLRSEDTAVYYCTREYTRDWFAYWGQGTLVTVSSGGGGSGGGGSGGGGSDIVMTQTPLSLSVTPGQPASISCRSSQSLFHSSGNTYLHWYLQKPGQPPQLLIYKVSNRFSGVPDRFSGSGSGTDFTLKISRVEAEDVGVYYCSQSTHVPFTFGQGTKLEIKRTVAAPSVFIFPPSDEQLKSGTASVVCLLNNFYPREAKVQWKVDNALQSGNSQESVTEQDSKDSTYSLSSTLTLSKADYEKHKVYACEVTHQGLSSPVTKSFNRGEC
notes: The light chain is the 4-1BB-2 scFv (VL-linker-VH) joined by a linker to the N-terminus of the CCR8-2 kappa light chain; also called 4-1BB-2×CCR8-2 (LC1) bispecific antibody

What was measured:
[1] = target: T1, human CCR8 (human, UniProt P51685 1-355); test: flow cytometry on CHO cells expressing human CCR8, MFI of PE
T1 construct: whole, on cells; The construct expressed in the CHO cells is not described further; also called hCCR8; C-C motif chemokine receptor 8
T1 sequence (P51685 whole entry): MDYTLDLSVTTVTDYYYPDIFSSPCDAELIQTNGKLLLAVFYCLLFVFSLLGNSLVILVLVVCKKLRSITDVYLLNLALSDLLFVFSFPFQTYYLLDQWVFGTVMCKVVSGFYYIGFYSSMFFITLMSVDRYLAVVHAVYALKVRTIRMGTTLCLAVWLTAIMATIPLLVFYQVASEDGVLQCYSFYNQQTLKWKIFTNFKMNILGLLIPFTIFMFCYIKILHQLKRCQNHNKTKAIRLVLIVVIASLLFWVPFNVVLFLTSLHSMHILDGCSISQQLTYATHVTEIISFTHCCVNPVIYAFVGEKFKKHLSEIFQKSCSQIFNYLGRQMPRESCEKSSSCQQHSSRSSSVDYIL
Experimental: Binding abilities of 4-1BB×CCR8 bispecific antibodies to CHO cells expressing human CCR8 were evaluated. About 50,000 CHO cells expressing human CCR8 were incubated with serially diluted antibodies (4-1BB-2×CCR8-2 (LC1) BsAb, 4-1BB-2×CCR8-2 (LC2) BsAb and 4-1BB-2×CCR8-2 (HC) BsAb) in FACS buffer (PBS+0.5% BSA) for 30 minutes on ice. After incubation, cells were washed twice and detected with […] The mean fluorescence intensity (MFI of PE) of each antibody was determined and plotted using GraphPad Prism software (Version 9.4.1; GraphPad Software Inc.). As shown in FIGS. 13A-13B, all the three 4-1BB×CCR8 bispecific antibodies bind to CHO cells expressing human CCR8 very well.

[2] = target: T2, human 4-1BB (human, UniProt Q07011 24-255); test: flow cytometry on CHO cells expressing human 4-1BB, anti-human IgG PE secondary antibody, percent of positive cells
T2 construct: whole, on cells; The construct expressed in the CHO cells is not described further; also called h4-1BB; CD137
T2 sequence (Q07011 24-255): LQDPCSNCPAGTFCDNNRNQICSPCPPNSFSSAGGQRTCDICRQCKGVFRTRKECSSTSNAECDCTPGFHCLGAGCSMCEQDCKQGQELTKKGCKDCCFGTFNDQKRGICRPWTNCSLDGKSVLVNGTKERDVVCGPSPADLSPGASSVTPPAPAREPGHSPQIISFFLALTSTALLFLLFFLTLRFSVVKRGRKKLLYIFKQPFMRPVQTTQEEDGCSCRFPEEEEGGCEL
Experimental: Binding abilities of 4-1BB×CCR8 bispecific antibodies (BsAb) to CHO cells expressing human 4-1BB were evaluated. About 50,000 CHO cells expressing human 4-1BB were incubated with serially diluted antibodies (4-1BB-2×CCR8-2 (LC1) BsAb, 4-1BB-2×CCR8-2 (LC2) BsAb, and 4-1BB-2×CCR8-2 (HC) BsAb) in FACS buffer (PBS+0.5% BSA) for 30 minutes on ice. After incubation, cells were washed twice and detected with anti-human IgG PE secondary antibody (Jackson ImmunoResearch, Cat. #: 109-116-170). […] As shown in FIGS. 12A-12B, all the three 4-1BB×CCR8 bispecific antibodies bind to CHO cells expressing human 4-1BB very well.

[3] = target: T1, human CCR8; test: flow cytometry on CHO cells expressing human CCR8, percent of positive cells
Experimental: Binding abilities of 4-1BB×CCR8 bispecific antibodies to CHO cells expressing human CCR8 were evaluated. About 50,000 CHO cells expressing human CCR8 were incubated with serially diluted antibodies (4-1BB-2×CCR8-2 (LC1) BsAb, 4-1BB-2×CCR8-2 (LC2) BsAb and 4-1BB-2×CCR8-2 (HC) BsAb) in FACS buffer (PBS+0.5% BSA) for 30 minutes on ice. […] As shown in FIGS. 13A-13B, all the three 4-1BB×CCR8 bispecific antibodies bind to CHO cells expressing human CCR8 very well.

Binder	binding result [1]	EC50 (read off the curve) [2] [nM]	EC50 (read off the curve) [1] [nM]	EC50 (read off the curve) [3] [nM]
B1	binds	~0.7		
B2	binds	~0.7		
B3		~0.06	~2	~0.3
